The target of series [1] is T1, HicB antitoxin (Streptococcus pneumoniae, UniProt A0A0H2URC7 1-150). Briefly: EMSA. A general note: In EMSA bound probe runs differently from free probe, usually more slowly.
The target in series [2] is T2, HicB antitoxin;HicA toxin (Streptococcus pneumoniae;Streptococcus …, UniProt A0A0H2URC7;A0A0H2URA5 1-150;1-68, |). Briefly: EMSA.
In series [3] the target is T3, HicB109-150 (C-terminal DNA-binding domain) (Streptococcus pneumoniae, UniProt A0A0H2URC7 109-150).
T3 chain: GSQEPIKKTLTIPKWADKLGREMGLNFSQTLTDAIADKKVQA
Kind of series: NMR titration.

Series [4] has as its target T1, HicB antitoxin. Briefly: ITC. Background: ITC needs no label: the signal is the heat of the interaction.
In series [5] the target is T2, HicB antitoxin;HicA toxin. Kind of series: ITC.

By Kd is commonly meant the concentration at which binding is half-saturated. Higher therefore signals a looser complex.

B1: Pal-I (dsDNA)
DNA 1: TCTGTAACGTTCGATACAGA
DNA 2: TCTGTATCGAACGTTACAGA
As to B1, the binding result in series [1] and in series [2] was “no binding” each time.

B2: hicBA promoter DNA, 28 bp (dsDNA)
DNA 1: TAATAGAATAATAAGTATCACTCCTTTA
DNA 2: TAAAGGAGTGATACTTATTATTCTATTA
As to B2, the dissociation constant Kd in series [3] came to 4.5 ± 1.1 µM; in series [4], 8.8 ± 1.1 µM; in series [5] it was 4.2 ± 0.4 µM.

Values taken from PMC6159526.
